The values that follow come from patent US9284369B2, “Inhibition of angiogenesis” (Genentech, Inc., priority 2007, dated 2016).

The subject of one test is Bv8 protein levels. Kind of test: Serum Bv8 in A673 tumor-bearing mice treated with cisplatin. The test is classed as in vivo, mouse. The following applies: cisplatin 5 mg/kg, alone or in combination with anti-VEGF. The protocol: FIG. 6. […] Anti-Bv8 treatment is mostly effective when treatment is initiated early in tumor development. […] Mice were then treated with control, anti-Bv8, anti-VEGF or combination (anti-VEGF plus anti-Bv8) of antibodies. Tumor volume was measured as described. * indicates significant difference (p<0.05) in tumor volume between combination therapy vs. anti-VEGF monotherapy. c&d. […] Nude mice (c) and C57B1/6 (d) mice were implanted with EL4 cells and underwent treatment with control, anti-Bv8, anti-VEGF or the combination. Tumor volume and terminal tumor weight were measured as described. * indicates significant difference […] in tumor volume in control vs. each monotherapy or the combination therapy. Differences in tumor volume are also significant when comparing combination vs. each monotherapy. e. Cisplatin and anti-VEGF treatment increase Bv8 concentration in the serum. Beige nude mice were implanted with A673 cells and were treated with PBS, cisplatin (5 mg/kg) plus control antibody, cisplatin plus anti-Bv8, or cisplatin plus anti-VEGF or the combination cisplatin, anti-Bv8 and anti-VEGF. Serum Bv8 protein concentrations were measured by ELISA. f. Chemotherapy plus anti-VEGF and anti-Bv8 can effectively suppress tumor growth in established A673 tumors. […]

For another test, the system named is human neutrophils. Kind of test: Chemotaxis of peripheral blood neutrophils. The test is classed as cell-based. The protocol:
10^6 cells were washed with HBSS containing 0.2% BSA before putting into transwell insert with 5 μm pore size (Corning Incorporated, Lowell, Mass.). In the lower chamber, media alone or media with various cytokines at various concentrations (maximum at 200 ng/ml) was added. After 3 hr at 37° C., cells in the lower chamber were transferred, mixed with 9 ml ZPAK solution and counted on Z2 Coulter Particle Count and Size Analyzer (Beckman Coulter, Fullerton, Calif.).

The next test deals with T1, PKR1/EG-VEGFR1 (Homo sapiens, UniProt Q8TCW9).
T1 construct: host or cells: GeneBLAzer NFAT-CHO cells
T1 sequence (Q8TCW9 whole entry): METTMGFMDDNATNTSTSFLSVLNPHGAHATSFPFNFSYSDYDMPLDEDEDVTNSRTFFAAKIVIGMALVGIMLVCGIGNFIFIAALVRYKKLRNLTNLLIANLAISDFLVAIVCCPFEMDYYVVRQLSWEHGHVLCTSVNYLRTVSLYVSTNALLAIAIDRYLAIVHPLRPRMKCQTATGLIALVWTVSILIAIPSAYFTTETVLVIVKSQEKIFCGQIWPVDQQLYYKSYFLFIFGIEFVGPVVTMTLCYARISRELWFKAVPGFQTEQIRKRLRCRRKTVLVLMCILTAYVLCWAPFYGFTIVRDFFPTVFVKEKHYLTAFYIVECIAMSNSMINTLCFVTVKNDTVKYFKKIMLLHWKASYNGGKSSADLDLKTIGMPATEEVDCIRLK
Kind of test: Bv8 bioactivity assay, GeneBLAzer NFAT-CHO cells transfected with PKR1/EG-VEGFR1. In kind it is cell-based. The following applies: Bv8 0.2-200 ng/ml; VEGF-A up to 200 ng/ml. The protocol: The GeneBLAzer® NFAT-CHO cells were obtained from Invitrogen Corporation (Carlsbad, Calif.). Cells were stably transfected with PKR1/EG-VEGFR1 and grown in DMEM (high glucose) containing 10% dialysed serum, 0.1 mM NEAA, 2 mM GlutaMax™ (Gibco), 1 mM sodium pyruvate, 10 μg/ml Zeocin, 500 μg/ml hygromycin. Cells were plated into 96-well Viewplate (Packard) with 2.5×10^4 in […] in 1% DMEM overnight at 5% CO2, 37° C. On the following day, cells were treated with various column fractions that were concentrated with Microcon Centrifugal Filter Devices (Ultracel YM-3) from Millipore. 0.2-0.02 ng/ml hBv8 (Peprotech Inc.) prepared in 1% DMEM was used as a positive control. One hour later, media was removed and replaced with […] Hank's solution containing 0.1% BSA and 6× loading buffer containing 1 mM CCF4 (Invitrogen Corporation). Plates were incubated for 1.5 hr at room temperature in the dark and read on Wallac plate reader at excitation wavelength of 410 nm and emission wavelength of 450/520 nm. Negative controls were cells with no ligand added and control media alone. CHO cells were stimulated with recombinant human Bv8 or pooled fractions for 1 hr before adding the β-lactamase substrate CCF4. To assess the specificity of the column fractions, anti-Bv8 antibodies 2B9 and 3F1 were added at […].

The test system of the next test is TIB42-TAEC cells. Nature of the test: In vitro tube formation of tumor-associated endothelial cells. Conditions: Bv8 200 ng/ml, VEGF-A 100 ng/ml, 36 hours. In kind it is cell-based, mouse. The protocol:
Tumor associated endothelial cells (TAECs) were isolated using a magnetic beads sorting system (Miltenyi Biotech), essentially as previously described (Hida et al., Cancer Res 64:8249-8255 (2004)). Briefly, TIB42 mouse lymphoma cells were injected into the dorsal lateral flanks of female beige nude mice. When tumors reached a diameter of […], they were excised, minced and then digested with collagenase II (Worthington Biochemical Corporation). Cell suspensions were than filtered using 100 μm to 40 μm meshes. CD31^+ cells were finally sorted using a FITC-CD31 antibody (BD Biosciences) according to the manufacturer's instructions. CD31+ cells were seeded in gelatin coated plates in the presence of EGM-2MV media (Cambrex). After 24 hs in culture CD31+ non-adherent cells were removed by washing several times with PBS.
For in vitro tube formation, TIB42-TAEC cells (passages 6-8) were starved for 5 hs in serum free medium. After this, cells were collected and resuspended in serum free medium supplemented with 5% BSA and treated with VEGF-A (100 ng/ml), Bv8 (200 ng/ml) or no addition (control). For specificity tests, Bv8, was incubated in the presence of anti-Bv8 Mabs (10 μg/ml). 5×10^5 cells were seeded in each well of a 24 well pre-coated with Matrigel™ (BD Biosciences) and tube formation was evaluated after 36 hours.

For another test, the system named is p44/42 MAPK. Kind of test: MAPK phosphorylation in TAECs (Western blot). The test is classed as cell-based, mouse. The protocol: TIB42-TAEC cells were starved for 6 hr in basal media supplemented with 0.5% BSA. Cells were then stimulated with human recombinant Bv8 (200 ng/ml; PeproTech), Complete Media (CM), VEGF (100 ng/ml; PeproTech) or BSA (0.5%). Cell extracts were collected at the indicated time-points. Western blot analysis of the extracts from TIB42-TAEC cells was performed using PhosphoPlus p44/42 MAPK™ antibody kit (Cell signaling).

The next test has as its system CD11b+Gr1+ myeloid cells. Kind of test: Trans-well migration of BM CD11b+Gr1+ cells. In kind it is cell-based, mouse. The following applies: comparable to SDF-1. The protocol:
BMMNCs were isolated from naïve Beige nude mice and the CD11b+Gr1+ population was sorted using CD11b microbeads (Miltenyi Biotech, CA) according to protocols provided by the manufacturer. An aliquot of the sorted cells were stained with anti-CD11bAPC and antiGr1-PE to ensure the purity (100%) of CD11b+Gr1+ cells. For migration assay, 2.0×10^5 cells were plated on the top chamber of transwells (Corning Incorporated, NY). The bottom chambers contained 600 μL of media (IMDM (Gibco BRL, CA) supplemented with BIT (Stem Cell Technologies, BC, Canada) containing human Bv8, control antibody, and murine recombinant VEGF in separate wells. Cells were incubated at 37° C. and 5% CO2 for 9 hrs and migration of CD11+b+Gr1+ cells was evaluated by counting the cells in the bottom chamber.

In test [1] the test system is Lin- and CD11b+Gr1+ BM cells. Nature of the test: Bv8 treatment of Lin- and CD11b+Gr1+ BM cells. The test is classed as cell-based, mouse. The method, then:
Supplemental FIG. 3. a. Bv8 induces trans-well migration of CD11b+Gr1+ myeloid cells. Controls were PBS or media alone. b&c. Expression of Bv8 receptors in BMMNCs. Beige nude mice were implanted with A673, HM7, HPAC or Calu-06 cells as described. After 10 days, CD11b+Gr1+ myeloid cells were isolated from the BM and Taqman™ analysis was performed to investigate EG-VEGFRs expression in myeloid and non-myeloid (CD11b−Gr1−) subsets of tumor versus Matrigel™-implanted mice. […] Bv8 alters the fate of the progenitor population to myeloid cells (CD11b+Gr1+) and also inhibitors cell death in the Lin-population. The Lin-fraction, isolated from the BMMNCs of beige nude mice, was incubated with Bv8 for 5 days and the frequency of CD11b+Gr1+ cells was evaluated in a FACSCalibur machine. In addition, 7AAD staining was employed to measure the number of dead cells in each treatment. e. Bv8 induces clonogenic capacity of progenitor cells. Lin-population were treated with Bv8 or PBS for 5 days and were plated on methylcellulose (7500 cells per well) and were incubated in 5% CO2 and 37° C. for 15 days. […] L Bv8 is a survival factor for myloid populations. The CD11b+Gr1+ cells, isolated from the BMMNCs of beige/nude mice, were cultured in media and were treated with Bv8 (300 ng/ml) for 5 days. Cell death was measured in a FACSCalibur machine using 7AAD staining. g&h. […] Mice were implanted with A673 (e) or HM7 (f) tumors and were treated with anti-Bv8 or control antibodies as described. Treatment was stopped at day 7 after implantation, as indicated by arrow in the figure. i&j. Discontinued treatment of anti-Bv8 results in rebound of CD11b+Gr1+ cells to A673 (i) and HM7 (j) tumors.
However, the precise contribution of R1 vs. R2 in mediating Bv8 signaling in BMMNCs remains to be determined. […] To further characterize the effects of Bv8 on the cells of the hematopoietic system, both lineage depleted (Lin— that is devoid of CD11b+Gr1+ cells) and CD11b+Gr1+ cells were isolated from the BM of naïve mice and were treated with recombinant Bv8.

Test [2] has as its system A673, HM7, HPAC and Calu6 cells. Kind of test: Tumor cell proliferation assay (BrdU incorporation). In kind it is cell-based, human. The following applies: range of concentrations. The method, then:
A673, HM7, HPAC and Calu6 cells were trypsinized and washed in media containing 0.5% FBS before seeding into 96-well black Viewplate (Packard Bioscience Company, Meriden, Conn.). Cells were incubated with various amounts of Bv8 (PeproTech Inc., Rocky Hill, N.J.) for 3 days. 10% FBS-containing media served as a positive control. Cell proliferation was assessed by BrdU incorporation using the Cell Proliferation ELISA kit (Roche).
On the technique in general: Incorporation of labelled thymidine or its analogues reports DNA synthesis.

Regarding `N.N.[Cl][Pt][Cl]` [cisplatin], in the test on Bv8 protein levels, the “Bv8 level in the serum” value is listed as “significantly (p<0.05) increased”.

Take “VEGF-A: recombinant vascular endothelial growth factor-A”: the “effect on neutrophil migration” value in the test with human neutrophils (all concentrations tested, data not shown) is listed as “did not show any effect”. Also, the “stimulation of PKR1/EG-VEGFR1 transfected CHO cells” value with PKR1/EG-VEGFR1 is reported as “did not elicit any response”. Further, the “tube formation in Matrigel” value in the test on TIB42-TAEC cells is reported as “formed tubes”. Moreover, the “MAP kinase phosphorylation in TAECs” value with p44/42 MAPK is “strong induction of MAP kinase phosphorylation”.

B1: Bv8: recombinant Bv8 (Prokineticin-2) protein, PeproTech (protein)
chain: AVITGACDKDSQCGGGMCCAVSIWVKSIRICTPMGKLGDSCHPLTRKVPFFGRRMHHTCPCLPGLACLRTSFNRFICLAQK
Turning to B1, the “migration of BM CD11b+Gr1+ cells” value in the test on CD11b+Gr1+ myeloid cells is given as “promoted migration”. Moreover, in the test on human neutrophils, the “concentration of maximal stimulation” value is listed as roughly 2 pM. Further, in the test on human neutrophils (3 hr), the “maximal stimulation of chemotaxis above control” value is on record as roughly 3 fold. Further, the “stimulation of PKR1/EG-VEGFR1 transfected CHO cells” value with PKR1/EG-VEGFR1 is “dose-dependent stimulation”. Also, the “dead cells among CD11b+Gr1+ cells” value in test [1] (Bv8 300 ng/ml, 5 days) is reported as “fewer dead cells”. Also, in test [1] (Bv8 for 5 days, 7AAD), the “number of dead cells in Lin- population” value was “significantly lower than controls”. Also, the “CD11b+Gr1+ cells arising in Lin- population” value in test [1] (Bv8 for 5 days, vs controls) is given as “higher expression of CD11b+Gr1+ cells”. For the same molecule, the “MAPK pathway in CD11b+Gr1+ cells” value in test [1] (data not shown) was “activation of MAPK pathway in a time dependent manner”. The “CFU colonies from Lin- cells” value in test [1] (p<0.05 vs control-treated cells) is reported as “greater number of colonies”. Also, the “effect on proliferation of tumor cell lines” value was “neither the anti-Bv8 Mabs nor Bv8 itself had any detectable effects” in test [2] and “failed to stimulate the proliferation” in test [2] (listed as recombinant Bv8). In addition, the “tube formation in Matrigel” value in the test with TIB42-TAEC cells is on record as “promoted tube formation”. Moreover, in the test on p44/42 MAPK, the “MAP kinase phosphorylation in TAECs” value was “strong induction of MAP kinase phosphorylation”.
